Data taken from article PMC7279886, “A non-linear system patterns Rab5 GTPase on the membrane” (eLife, 2020).

What was measured:
Conditions in all cases: both partners purified
Rabex5 = biological target: T1, Rabex5 (Bos taurus, UniProt O18973 1-492); assay: HDX-MS; Rabex5/Rabaptin5 premixed with Rab5:GDP, ternary complex diluted into deuterated buffer without GTPγS, 1, 5 and 15 min, 22 °C
T1 construct: Rabex5, Bos taurus, 57 kDa Vps9 domain containing GEF for Rab5; The His tag served for capture in the co-purification and was then cut with 3C protease; also called Rabex5-6xHis
T1 sequence (O18973 whole entry, the tested form may be a part): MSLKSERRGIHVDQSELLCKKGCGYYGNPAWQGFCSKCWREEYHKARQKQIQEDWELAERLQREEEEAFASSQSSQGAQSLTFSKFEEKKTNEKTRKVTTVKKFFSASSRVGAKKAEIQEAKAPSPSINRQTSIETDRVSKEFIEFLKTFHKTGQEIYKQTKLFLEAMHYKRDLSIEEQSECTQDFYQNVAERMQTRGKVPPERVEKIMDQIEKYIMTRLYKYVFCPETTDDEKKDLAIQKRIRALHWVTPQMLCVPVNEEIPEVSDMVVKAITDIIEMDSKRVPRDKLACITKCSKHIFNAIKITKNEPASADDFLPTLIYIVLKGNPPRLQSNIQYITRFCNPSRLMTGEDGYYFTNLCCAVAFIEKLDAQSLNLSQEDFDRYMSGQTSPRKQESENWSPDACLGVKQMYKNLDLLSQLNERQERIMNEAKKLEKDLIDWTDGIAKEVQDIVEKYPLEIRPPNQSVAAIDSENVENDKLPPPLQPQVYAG

Rabex5/Rabaptin5 complex = biological target: T2, Rabex5/Rabaptin5 complex (Bos taurus | human, UniProt O18973 1-492; Q15276 1-862); assay: as above
T2 construct: Rabex5, Bos taurus, 57 kDa Vps9 domain containing GEF for Rab5; Rabaptin5, human, 99 kDa; also called GEF/effector complex; not shown: GST, N-terminal, cleaved; copies: 2 + 2
T2 sequence (O18973 whole entry, the tested form may be a part, one chain of several): as the sequence (O18973 whole entry, the tested form may be a part) above

Rabaptin5 = biological target: T3, Rabaptin5 (human, UniProt Q15276 1-862); assay: HDX-MS; Rabex5/Rabaptin5 premixed with Rab5:GDP, ternary complex diluted into deuterated buffer with GTPγS, 1, 5 and 15 min, 22 °C; uptake compared with the sample without GTPγS
T3 construct: Rabaptin5, human, 99 kDa; GST served for capture in the co-purification and was then cut from the resin with GST-3C protease; also called GST-Rabaptin5; not shown: GST, N-terminal, cleaved
T3 sequence (looked up): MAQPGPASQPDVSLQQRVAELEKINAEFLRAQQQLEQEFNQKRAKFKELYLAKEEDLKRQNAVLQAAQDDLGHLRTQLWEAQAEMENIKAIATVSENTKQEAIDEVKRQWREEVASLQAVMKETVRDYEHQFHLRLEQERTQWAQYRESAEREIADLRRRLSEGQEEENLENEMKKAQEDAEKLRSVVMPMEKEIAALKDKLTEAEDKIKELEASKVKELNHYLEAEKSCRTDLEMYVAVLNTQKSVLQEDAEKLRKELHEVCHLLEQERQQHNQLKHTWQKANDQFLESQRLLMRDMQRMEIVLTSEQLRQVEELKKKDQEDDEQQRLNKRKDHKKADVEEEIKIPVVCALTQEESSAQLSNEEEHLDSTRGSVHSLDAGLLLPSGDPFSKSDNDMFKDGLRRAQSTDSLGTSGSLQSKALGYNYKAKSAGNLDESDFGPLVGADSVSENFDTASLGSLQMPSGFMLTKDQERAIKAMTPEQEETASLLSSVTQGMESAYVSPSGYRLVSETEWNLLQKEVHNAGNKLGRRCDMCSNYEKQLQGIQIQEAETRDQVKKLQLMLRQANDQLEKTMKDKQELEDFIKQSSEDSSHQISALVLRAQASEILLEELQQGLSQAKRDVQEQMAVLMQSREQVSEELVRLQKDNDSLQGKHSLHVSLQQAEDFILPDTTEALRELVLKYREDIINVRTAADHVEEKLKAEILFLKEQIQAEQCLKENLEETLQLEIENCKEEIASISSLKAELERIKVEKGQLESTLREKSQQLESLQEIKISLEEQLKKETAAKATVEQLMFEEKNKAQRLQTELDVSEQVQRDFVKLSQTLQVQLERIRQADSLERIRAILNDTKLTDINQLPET

binding result (Rabex5): binds | binding result (Rabex5/Rabaptin5 complex): binds | binding result (Rabaptin5): binds
B1: Rab5 (natural protein, human, UniProt P20339 1-215, looked up)
chain: MASRGATRPNGPNTGNKICQFKLVLLGESAVGKSSLVLRFVKGQFHEFQESTIGAAFLTQTVCLDDTTVKFEIWDTAGQERYHSLAPMYYRGAQAAIVVYDITNEESFARAKNWVKELQRQASPNIVIALSGNKADLANKRAVDFQEAQSYADDNSLLFMETSAKTSMNVNEIFMAIAKKLPKNEPQNPGANSARGRGVDLTEPTQPTRNQCCSN
notes: Rab5a, human; Rab5 as used in the HDX-MS experiment, printed there without GFP; also called Rab5a; Rab5:GDP; source: Sf9, purified (Ni-NTA, SEC)
